# Experimental data as given in US20130171153A1 (TRANSBIO, published 2013).
# B1: antibody produced by the hybridoma designated CRCBT-02-001 (ATCC PTA-10685) (antibody, V domains shown)
# VH: FGGGLVQPGGSMKLSCVASGFTFSYYWMNWVRQSPEQGLEWIAEIRLQSNDYPTHYAESVKGRFTISRDDSKNSVYLQMNNLRPEDTGIYYCACRYADYFDHWGQGTTLTVSS
# VL: VMTQSPAILSVYPGEKVTMTCRASLSVSYMHWCQQKPGSSPKSWIYATSNLASGVPARFSGSGSGTSYSLTISRVEAEDAATYYCQQWSSNPFTFGSGTKLEIKR
# notes: constant regions are not; Used as hybridoma supernatant or as Protein G purified antibody; also called CRCBT-002-001; P1G5-P2B3
# B2: CRCBT-02-001 Fab (Fab, V domains shown)
# VH: B1 VH
# VL: B1 VL
# notes: also called PI16 Fab; Anti-PI16 Fab fragment
# Columns and labels:
# [1] = molecular target: T1, mouse PI16 (mouse, UniProt Q9ET66 30-498, limits assumed); assay: not described
# T1 construct: also called Mus musculus PI16
# T1 sequence: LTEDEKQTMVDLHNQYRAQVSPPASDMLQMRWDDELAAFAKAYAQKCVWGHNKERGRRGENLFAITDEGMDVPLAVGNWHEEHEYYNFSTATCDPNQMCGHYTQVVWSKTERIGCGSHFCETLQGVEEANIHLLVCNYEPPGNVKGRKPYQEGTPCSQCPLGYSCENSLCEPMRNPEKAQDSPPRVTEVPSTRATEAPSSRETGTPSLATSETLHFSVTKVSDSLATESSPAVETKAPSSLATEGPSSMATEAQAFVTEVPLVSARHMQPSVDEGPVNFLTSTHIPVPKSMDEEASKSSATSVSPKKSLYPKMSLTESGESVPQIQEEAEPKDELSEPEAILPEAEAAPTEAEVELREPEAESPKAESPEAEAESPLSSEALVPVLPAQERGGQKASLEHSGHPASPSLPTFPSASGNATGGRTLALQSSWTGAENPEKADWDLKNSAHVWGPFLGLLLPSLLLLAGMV
# [2] = molecular target: T2, Abnova recombinant PI16 protein (expressed using a wheat germ cell free system) (UniProt Q6UXB8 1-463, limits assumed); assay: slot blot
# T2 construct: Bought product; also called Rec. protein Abnova; Abnova recombinant protein
# T2 sequence (looked up): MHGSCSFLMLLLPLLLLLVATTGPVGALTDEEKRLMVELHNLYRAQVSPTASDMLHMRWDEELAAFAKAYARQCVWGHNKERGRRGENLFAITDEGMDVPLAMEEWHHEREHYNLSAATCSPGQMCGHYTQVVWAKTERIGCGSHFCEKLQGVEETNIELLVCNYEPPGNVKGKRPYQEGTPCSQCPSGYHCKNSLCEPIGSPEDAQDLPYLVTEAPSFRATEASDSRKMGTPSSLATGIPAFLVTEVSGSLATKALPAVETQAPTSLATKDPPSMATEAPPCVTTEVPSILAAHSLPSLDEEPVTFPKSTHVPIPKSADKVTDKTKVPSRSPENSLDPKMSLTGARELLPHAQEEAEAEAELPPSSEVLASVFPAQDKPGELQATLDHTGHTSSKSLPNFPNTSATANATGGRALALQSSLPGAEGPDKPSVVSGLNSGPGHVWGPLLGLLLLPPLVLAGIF
# Procedure: 100 μl of samples (as indicated) were loaded into each slot onto nitrocellulose membrane (Protran; Schleicher & Schuell) under vacuum. After loading, the blot was blocked for 1 hour at RT with 3% skim milk powder (Diploma) in PBS Tween 0.05% (block buffer). The primary Ab (secreted by CRCBT-02-001 or the polyclonal PI16 antibody from Abnova) was diluted in block buffer one in two and incubated on a platform rocker for 1 hour at RT. The blot was washed 3×5 minutes with PBS tween. Biotinylated horse anti mouse (Vector) 1/1000 diluted in block buffer was added and incubated for one hour at RT on rocking platform. The blot was washed 3×5 minutes with PBS tween. A dilution of 1/1000 SA:HRP (GE Healthcare) in block buffer was added and incubated for one hour at RT on rocking platform. The blot was washed 3×5 minutes with PBS tween. An appropriate volume of ECL solutions A and B (enough to cover membrane surface; ECL Advance Western Blotting Kit, GE Healthcare) was added and incubated for one minute with constant shaking. The blot was read immediately in a G:Box (Syngene) upon 15 seconds UV-exposure.
# To determine the protein to which the monoclonal antibody binds, slot blots were performed.
# [3] = molecular target: T3, fragment of PI16 expressed by phage clone 4 (round 3) (human); assay: phage ELISA of PI16 gene fragment clones
# T3 construct: also called R3 4
# T3 chain: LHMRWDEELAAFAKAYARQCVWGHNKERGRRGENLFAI
# [4] = molecular target: T4, fragment of PI16 expressed by phage clone 7 (round 3) (human); assay: phage ELISA of PI16 gene fragment clones
# T4 construct: also called R3 7
# T4 chain: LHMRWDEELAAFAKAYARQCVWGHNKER
# [5] = molecular target: T5, fragment of PI16 expressed by phage clone 10 (round 3) (human); assay: phage ELISA of PI16 gene fragment clones
# T5 construct: also called R3 10
# T5 chain: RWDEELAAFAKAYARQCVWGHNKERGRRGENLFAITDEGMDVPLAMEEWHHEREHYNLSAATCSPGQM
# [6] = molecular target: T6, fragment of PI16 expressed by phage clone 12 (round 3) (human); assay: phage ELISA of PI16 gene fragment clones
# T6 construct: also called R3 12
# T6 chain: LHMRWDEELAAFAKAYARQ
# [7] = molecular target: T7, fragment of PI16 expressed by phage clone 15 (round 3) (human); assay: phage ELISA of PI16 gene fragment clones
# T7 construct: also called R3 15
# T7 chain: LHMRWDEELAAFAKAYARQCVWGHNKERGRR
# [8] = molecular target: T8, PI16-Fc (extracellular domain of human PI16, aa 28-443, tev-protease cleavage site, C-terminal human Fc) (human, UniProt P01857-1 104-330 = IgG part); assay: SPR (ProteOn XPR36), mAb captured by anti-mouse IgG on GLM chip, PI16-Fc as analyte, Langmuir global fit
# T8 construct: domain: Fc; also called recombinant PI16-Fc; native PI16-Fc; not shown: tev-protease cleavage site
# Procedure: A proteOn sensor chip (GLM) was activated by flowing a mixture of 0.2 M EDC and 0.05 M sulpho-NHS over the chip ([…] at 30 μL/min for 5 minutes). Rabbit anti-mouse IgG whole molecule (Sigma M-7023) was then coupled to the chip in the vertical orientation by flowing 150 μL of a 50 μg/mL solution in 10 mM acetate buffer (pH 4.5) at 30 μL/min. The remaining coupling sites were then deactivated by flowing 150 μL of 1 M ethanolamine-HCl (pH 8.5) at 30 μL/min. Mouse monoclonal anti PI16 IgG was then allowed to flow over and be captured by the coupled anti-mouse IgG antibody by flowing 150 μL of 100 μg/mL IgG at 25 μL/min over a single channel of the sensor chip in the horizontal direction. […] PBS Tween 20 (0.005%) alone was passed over the remaining channel and served as a reference. Binding sensorgrams were collected and analysed with the ProteOn Manager 2.1×PR36 software using the Langmuir kinetic model to fit the data and determine the affinity constant (KD).
# The published method (Nahshol et al., 2008) was used to measure the kinetics of the PI16 mab by anti-mouse capture. This is a relatively mild method coupling method and the association and dissociation curves and affinity measurement was performed with 4 dilutions of the PI16-Fc (FIG. 43 and Table 9). The data fitted well to a Langmuir kinetic model using global fit (all the curves fitted simultaneously).
# [9] = molecular target: T8, PI16-Fc (extracellular domain of human …); assay: SPR (ProteOn XPR36), PI16-Fc amine-coupled to GLC chip, Fab as analyte, Langmuir global fit
# Procedure: A ProteOn sensor chip (GLC) was activated by flowing a mixture of 0.2 M N-ethyl-N′-(3-dimethylaminopropyl) carbodiimide (EDC) and 0.05 M sulfo-N-hydroxysuccinimide (sulfo-NHS) over the chip (150 μL at 30 μL/min for 5 minutes). Recombinant PI16-Fc was coupled to the chip in the vertical orientation by flowing 150 μL of a 50 μg/mL solution in 10 mM acetate buffer (pH 4.5) at 30 μL/min. The remaining activated carboxyl group were then deactivated by flowing 150 μL of 1 M ethanolamine-HCl (pH 8.5) at 30 μL/min. […] PBS Tween 20 (0.005%) alone was passed over the remaining channel. Binding sensorgrams were collected and analysed with the ProteOn Manager 2.1×PR36 software using the Langmuir kinetic model to fit the data and determine the affinity constant (KD).
# This coupling method was performed using various pHs to optimise the coupling of PI16-Fc to the GLC chip. The optimal coupling pH was 4.5. The association and dissociation curves and affinity measurement was performed with 3 dilutions of the PI16 Fab shown in FIG. 42 and Table 8. The data fitted well to a Langmuir kinetic model using global fit (all the curves fitted simultaneously).
# T8 sequence (P01857 other isoform, or with tags, fused parts or gaps): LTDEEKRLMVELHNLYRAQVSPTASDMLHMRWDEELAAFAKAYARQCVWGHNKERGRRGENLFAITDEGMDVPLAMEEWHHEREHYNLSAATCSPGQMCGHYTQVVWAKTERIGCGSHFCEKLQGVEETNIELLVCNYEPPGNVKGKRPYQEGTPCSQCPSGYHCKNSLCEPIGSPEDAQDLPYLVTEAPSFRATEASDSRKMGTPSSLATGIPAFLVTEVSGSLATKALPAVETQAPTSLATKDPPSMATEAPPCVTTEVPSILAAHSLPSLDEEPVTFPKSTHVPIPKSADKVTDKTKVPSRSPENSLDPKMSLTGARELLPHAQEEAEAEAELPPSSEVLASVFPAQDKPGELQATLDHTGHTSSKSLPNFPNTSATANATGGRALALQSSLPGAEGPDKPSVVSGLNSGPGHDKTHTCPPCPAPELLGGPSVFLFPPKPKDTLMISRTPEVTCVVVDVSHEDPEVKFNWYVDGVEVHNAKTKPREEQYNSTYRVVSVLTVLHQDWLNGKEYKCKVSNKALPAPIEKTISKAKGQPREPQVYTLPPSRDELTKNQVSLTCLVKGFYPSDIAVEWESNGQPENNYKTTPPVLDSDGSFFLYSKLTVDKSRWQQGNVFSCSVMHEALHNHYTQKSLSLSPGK
binder,measurement,setting,value
B1,binding result,[1],no binding
same,binding result,[2],no binding
same,binding result,[3],binds
same,binding result,[4],binds
same,binding result,[5],binds
same,binding result,[6],binds
same,binding result,[7],binds
same,Kd,[8],2.56 nM
same,koff,[8],0.000149 s⁻¹
same,kon,[8],58200 M⁻¹ s⁻¹
B2,Kd,[9],1.25 nM
same,koff,[9],0.000372 s⁻¹
same,kon,[9],297000 M⁻¹ s⁻¹
